Data from article PMC10397247.

How the values were obtained:
Assay in all cases: two-hybrid library CCNG1;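 also: natural log of median RNA to DNA barcode read ratio; higher means stronger binding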
4H2839-bA = molecular target: T1, 4H2839-bA
T1 chain: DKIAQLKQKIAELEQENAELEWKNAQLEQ

4H2692-bA = molecular target: T2, 4H2692-bA
T2 chain: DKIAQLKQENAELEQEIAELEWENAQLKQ

4H3277-bA = molecular target: T3, 4H3277-bA
T3 chain: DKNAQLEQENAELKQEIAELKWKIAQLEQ

4H2503-bA = molecular target: T4, 4H2503-bA
T4 chain: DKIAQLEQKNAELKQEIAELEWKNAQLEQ

4H2915-bA = molecular target: T5, 4H2915-bA
T5 chain: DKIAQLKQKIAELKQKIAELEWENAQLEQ

4H40-bA = molecular target: T6, 4H40-bA
T6 chain: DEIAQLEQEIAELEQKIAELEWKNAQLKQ

4H687-bA = molecular target: T7, 4H687-bA
T7 chain: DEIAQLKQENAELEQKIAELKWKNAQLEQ

4H348-bA = molecular target: T8, 4H348-bA
T8 chain: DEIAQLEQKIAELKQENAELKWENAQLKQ

4H492-bA = molecular target: T9, 4H492-bA
T9 chain: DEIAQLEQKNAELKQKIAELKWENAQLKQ

4H741-bA = molecular target: T10, 4H741-bA
T10 chain: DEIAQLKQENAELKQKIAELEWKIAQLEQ

4H477-bA = molecular target: T11, 4H477-bA
T11 chain: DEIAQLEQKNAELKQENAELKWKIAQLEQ

4H3057-bA = molecular target: T12, 4H3057-bA
T12 chain: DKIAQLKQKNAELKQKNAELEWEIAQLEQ

4H319-bA = molecular target: T13, 4H319-bA
T13 chain: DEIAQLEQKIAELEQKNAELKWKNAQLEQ

4H3162-bH = molecular target: T14, 4H3162-bH
T14 chain: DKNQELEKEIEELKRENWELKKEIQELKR

4H2717-bA = molecular target: T15, 4H2717-bA
T15 chain: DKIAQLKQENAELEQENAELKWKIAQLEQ

4H2588-bA = molecular target: T16, 4H2588-bA
T16 chain: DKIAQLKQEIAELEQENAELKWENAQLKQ

P8mS = molecular target: T17, P8mS
T17 chain: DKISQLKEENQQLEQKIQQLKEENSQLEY

P7mS = molecular target: T18, P7mS
T18 chain: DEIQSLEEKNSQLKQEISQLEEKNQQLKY

P9mS = molecular target: T19, P9mS
T19 chain: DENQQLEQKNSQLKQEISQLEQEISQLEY

O16-bN = molecular target: T20, O16-bN
T20 chain: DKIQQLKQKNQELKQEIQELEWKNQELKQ

O2-bN = molecular target: T21, O2-bN
T21 chain: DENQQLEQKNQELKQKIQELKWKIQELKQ

O15-bN = molecular target: T22, O15-bN
T22 chain: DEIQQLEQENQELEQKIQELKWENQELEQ

O5-bN = molecular target: T23, O5-bN
T23 chain: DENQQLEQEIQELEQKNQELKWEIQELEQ

O4-bN = molecular target: T24, O4-bN
T24 chain: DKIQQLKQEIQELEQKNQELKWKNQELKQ

O8-bN = molecular target: T25, O8-bN
T25 chain: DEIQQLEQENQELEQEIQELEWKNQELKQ

O3-bN = molecular target: T26, O3-bN
T26 chain: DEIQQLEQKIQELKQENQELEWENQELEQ

O9-bN = molecular target: T27, O9-bN
T27 chain: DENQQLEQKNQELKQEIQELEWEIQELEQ

O7-bN = molecular target: T28, O7-bN
T28 chain: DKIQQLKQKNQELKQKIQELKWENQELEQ

O6-bN = molecular target: T29, O6-bN
T29 chain: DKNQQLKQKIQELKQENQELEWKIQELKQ

4H4001-bA = molecular target: T30, 4H4001-bA
T30 chain: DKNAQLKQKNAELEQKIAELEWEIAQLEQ

4H72-bA = molecular target: T31, 4H72-bA
T31 chain: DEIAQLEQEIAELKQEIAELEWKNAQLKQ

4H3782-bA = molecular target: T32, 4H3782-bA
T32 chain: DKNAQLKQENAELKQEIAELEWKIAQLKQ

4H967-bA = molecular target: T33, 4H967-bA
T33 chain: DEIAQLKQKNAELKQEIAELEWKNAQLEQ

O15-bH = molecular target: T34, O15-bH
T34 chain: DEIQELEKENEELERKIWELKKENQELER

4H797-bA = molecular target: T35, 4H797-bA
T35 chain: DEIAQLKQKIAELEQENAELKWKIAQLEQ

4H568-bA = molecular target: T36, 4H568-bA
T36 chain: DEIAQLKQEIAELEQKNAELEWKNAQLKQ

4H883-bA = molecular target: T37, 4H883-bA
T37 chain: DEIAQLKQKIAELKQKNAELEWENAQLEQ

4H754-bA = molecular target: T38, 4H754-bA
T38 chain: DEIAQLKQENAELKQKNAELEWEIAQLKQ

4H454-bA = molecular target: T39, 4H454-bA
T39 chain: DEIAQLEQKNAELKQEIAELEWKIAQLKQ

4H953-bA = molecular target: T40, 4H953-bA
T40 chain: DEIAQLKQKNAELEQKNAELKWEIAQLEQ

4H3855-bA = molecular target: T41, 4H3855-bA
T41 chain: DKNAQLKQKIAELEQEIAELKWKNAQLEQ

4H338-bA = molecular target: T42, 4H338-bA
T42 chain: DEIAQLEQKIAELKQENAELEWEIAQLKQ

4H3427-bA = molecular target: T43, 4H3427-bA
T43 chain: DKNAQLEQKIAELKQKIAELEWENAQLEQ

4H918-bA = molecular target: T44, 4H918-bA
T44 chain: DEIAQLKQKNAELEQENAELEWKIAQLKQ

4H908-bA = molecular target: T45, 4H908-bA
T45 chain: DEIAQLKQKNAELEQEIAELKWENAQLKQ

4H607-bA = molecular target: T46, 4H607-bA
T46 chain: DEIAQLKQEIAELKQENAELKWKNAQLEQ

4H717-bA = molecular target: T47, 4H717-bA
T47 chain: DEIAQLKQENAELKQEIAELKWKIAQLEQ

B1: 4H2503-bA (peptide)
chain: DKIAQLEQKNAELKQEIAELEWKNAQLEQ
interaction score (4H2839-bA): -0.791 | interaction score (4H2692-bA): 0.466 | interaction score (4H3277-bA): -0.659 | interaction score (4H2503-bA): -0.591 | interaction score (4H2915-bA): -0.804 | interaction score (4H40-bA): -0.475 | interaction score (4H687-bA): 1.12 | interaction score (4H348-bA): -1.13 | interaction score (4H492-bA): -0.351 | interaction score (4H741-bA): -0.407 | interaction score (4H477-bA): -0.816 | interaction score (4H3057-bA): -0.42 | interaction score (4H319-bA): -1.63 | interaction score (4H3162-bH): -2.22 | interaction score (4H2717-bA): -0.684 | interaction score (4H2588-bA): -0.447

B2: P7mS (peptide)
chain: DEIQSLEEKNSQLKQEISQLEEKNQQLKY
interaction score (P8mS): 1.28 | interaction score (P7mS): -0.531 | interaction score (P9mS): 0.076

B3: O14-bN (peptide)
chain: DENQQLEQEIQELEQENQELEWKIQELKQ
interaction score (O16-bN): 1.69 | interaction score (O2-bN): 0.0465 | interaction score (O15-bN): -0.117 | interaction score (O5-bN): -0.308 | interaction score (O4-bN): -1.01 | interaction score (O8-bN): -1.68 | interaction score (O3-bN): 0.477 | interaction score (O9-bN): -0.149 | interaction score (O7-bN): 1.78 | interaction score (O6-bN): 0.642

B4: 4H338-bA (peptide)
chain: DEIAQLEQKIAELKQENAELEWEIAQLKQ
interaction score (4H4001-bA): 0.217 | interaction score (4H72-bA): -0.139 | interaction score (4H687-bA): -1.18 | interaction score (4H3782-bA): -0.133 | interaction score (4H967-bA): 0.424 | interaction score (O15-bH): 0.0935 | interaction score (4H797-bA): -0.317 | interaction score (4H568-bA): 0.415 | interaction score (4H883-bA): -0.973 | interaction score (4H754-bA): -0.95 | interaction score (4H454-bA): 2.01 | interaction score (4H953-bA): -0.0976 | interaction score (4H3855-bA): -0.445 | interaction score (4H338-bA): 0.363 | interaction score (4H3427-bA): 0.0707 | interaction score (4H918-bA): -1.39 | interaction score (4H908-bA): -0.695 | interaction score (4H607-bA): -0.707 | interaction score (4H717-bA): -0.573
